Here are results for 13 substances from patent EP0910659B1, “ANTIBODIES AGAINST A COMPLEX OF CD4 AND A CHEMOKINE RECEPTOR DOMAIN, AND THEIR USE AGAINST HIV INFECTIONS” (United Biomedical, Inc., priority 1996, dated 1997).

For one assay, the target named is T1, "M2-rsCD4" interaction (Homo sapiens, UniProt P01730).
T1 construct: purchased American Bio-Technologies, Inc. Cambridge, MA
The experiment in a line: ELISA inhibition assay with CD4 peptides (M2). It counts as binding. The note with it: M2 20 µg/mL, negative = enhancement; for % inhibition of "M2-rsCD4" interaction, Conc 3: peptide 16.7 µg/mL; for % inhibition of "M2-rsCD4" interaction, Conc 2: peptide 167 µg/mL; for % inhibition of "M2-rsCD4" interaction, Conc 1: peptide 1.67 mg/mL. On the procedure: (§1) ELISA Inhibition Assays. […] The preincubated sample and peptide mixture was used directly in the standard rsCD4 ELISA procedure described herein above. Percent inhibition was calculated relative to the appropriate identically diluted monoclonal antibody which was preincubated in the absence of peptide. rsCD4-induced inhibition of antibody binding in the rsCD4 ELISA was similarly measured by preincubating diluted samples, at an endpoint rsCD4 binding dilution, with the competing rsCD4 at the indicated concentration.
(§2) The signal generated at endpoint concentration (e.g. 10 µg/mL for B4 and 20 µg/mL for M2) in an rsCD4 ELISA was employed as a positive control for the competitive peptide binding studies.
Table 6 depicts the per cent inhibition results obtained in the rsCD4 ELISA where designed CD4 peptides were serially diluted as in Table 5 and were individually incubated with 0.1 mL of M2 at 20 µg/mL prior to binding M2 to the solid phase-bound rsCD4.
(In an ELISA, binding on a coated surface is turned into a signal by an enzyme label.)

The next assay has as its target T2, "B4-rsCD4" interaction (Homo sapiens, UniProt P01730).
T2 construct: purchased American Bio-Technologies, Inc. Cambridge, MA
The experiment in a line: ELISA inhibition assay with CD4 peptides (B4). The note with it: B4 10 µg/mL, negative = enhancement; for % inhibition of "B4-rsCD4" interaction, Conc 3: peptide 16.7 µg/mL; for % inhibition of "B4-rsCD4" interaction, Conc 2: peptide 167 µg/mL; for % inhibition of "B4-rsCD4" interaction, Conc 1: peptide 1.67 mg/mL. It counts as binding. On the procedure: as §1, §2
Table 5 depicts per cent inhibition results obtained in the rsCD4 ELISA where designed CD4 peptides were serially diluted and individually incubated with 0.1 mL of B4 at 10 µg/mL prior to the binding of B4 to the solid phase-bound rsCD4. Peptides were employed for competitive inhibition at concentrations of 1.67 mg/mL, 167 µg/mL and 16.7 µg/mL (conc 1, conc 2, and conc 3, respectively). […] Enhancement is expressed by negative values for inhibition.

For assay [1], the target named is CD4 on the surface of CD4-expressing cells (host cell antigen complex comprising CD4) (human). The experiment in a line: HPB-ALL cells pre-incubated with PBS, then gp120-FITC 1:200.
The target in assay [2] is monoclonal antibody B4. The experiment in a line: competition rsCD4 ELISA, B4 10 µg/mL, peptide 16.7 µg/mL; negative value = enhancement.
Assay [3] concerns the target monoclonal antibody B4. Description: competition rsCD4 ELISA, B4 10 µg/mL, peptide 167 µg/mL; negative value = enhancement.
Assay [4] concerns the target monoclonal antibody B4. The experiment in a line: competition rsCD4 ELISA, B4 10 µg/mL, peptide 1.67 mg/mL; negative value = enhancement.
Assay [5] deals with monoclonal antibody B4. The experiment in a line: competition rsCD4 ELISA, B4 10 µg/mL, peptide 1.67 mg/mL.
Assay [6] addresses monoclonal antibody B4. The experiment in a line: competition rsCD4 ELISA, B4 10 µg/mL, peptide 167 µg/mL.
Assay [7] deals with monoclonal antibody B4. Description: competition rsCD4 ELISA, B4 10 µg/mL, peptide 16.7 µg/mL.
Assay [8] deals with gp120 of HIV-1 primary isolate 23135 (clade B). Description: cell-based or functional assay.
The target in assay [9] is gp120 of HIV-1 primary isolate BR014 (clade B). Description: cell-based or functional assay.
Assay [10] deals with gp120 of HIV-1 primary field isolate DH-12 (clade B). Description: cell-based or functional assay.
In assay [11] the target is monoclonal antibody B4. The experiment in a line: ELISA inhibition: soluble rsCD4 preincubated with B4 0.1 µg/mL; wells coated with rsCD4/CC-CKR5-D3 (p2047a).
For assay [12], the target named is monoclonal antibody B4. Description: competition ELISA: soluble rsCD4 0.04 µg/mL preincubated with B4 2 µg/mL; solid-phase rsCD4.
In assay [13] the target is monoclonal antibody B4. Description: soluble rsCD4 50 µg/mL preincubated with biotinylated B4 0.71 µg/mL, then HPB-ALL cells; no inhibition.
Assay [14] addresses monoclonal antibody B4. The experiment in a line: competition ELISA: soluble rsCD4 0.2 µg/mL preincubated with B4 2 µg/mL; solid-phase rsCD4.
The target of assay [15] is monoclonal antibody B4. Description: ELISA inhibition: soluble rsCD4 preincubated with B4 2 µg/mL; wells coated with rsCD4.
The target of assay [16] is monoclonal antibody B4. The experiment in a line: soluble rsCD4 0.5 µg/mL preincubated with biotinylated B4 0.71 µg/mL, then HPB-ALL cells; no inhibition.
The target in assay [17] is monoclonal antibody B4. Description: competition ELISA: soluble rsCD4 preincubated with B4 2 µg/mL; solid-phase rsCD4.
Assay [18] addresses monoclonal antibody B4. The experiment in a line: competition ELISA: soluble rsCD4 25 µg/mL preincubated with B4 2 µg/mL; solid-phase rsCD4.
Assay [19] deals with monoclonal antibody B4. The experiment in a line: competition ELISA: soluble rsCD4 0.008 µg/mL preincubated with B4 2 µg/mL; solid-phase rsCD4.
Assay [20] has as its target monoclonal antibody B4. The experiment in a line: soluble rsCD4 0.05 µg/mL preincubated with biotinylated B4 0.71 µg/mL, then HPB-ALL cells; no inhibition.
For assay [21], the target named is monoclonal antibody B4. Description: competition ELISA: soluble rsCD4 5 µg/mL preincubated with B4 2 µg/mL; solid-phase rsCD4.
In assay [22] the target is monoclonal antibody B4. Description: soluble rsCD4 5 µg/mL preincubated with biotinylated B4 0.71 µg/mL, then HPB-ALL cells; no inhibition.
Assay [23] addresses monoclonal antibody B4. Description: competition ELISA: soluble rsCD4 1.0 µg/mL preincubated with B4 2 µg/mL; solid-phase rsCD4.
Assay [24] concerns the target monoclonal antibody B4. Description: soluble rsCD4 0.005 µg/mL preincubated with biotinylated B4 0.71 µg/mL, then HPB-ALL cells; no inhibition.

Turning to CD4 (1-20) [1816d], at "M2-rsCD4" interaction, the “% inhibition of "M2-rsCD4" interaction, Conc 3” value is 17%; the “% inhibition of "M2-rsCD4" interaction, Conc 2” value is recorded as 60%; the “% inhibition of "M2-rsCD4" interaction, Conc 1” value is 74%. Moreover, on "B4-rsCD4" interaction, the “% inhibition of "B4-rsCD4" interaction, Conc 3” value amounted to 29%; the “% inhibition of "B4-rsCD4" interaction, Conc 2” value is recorded as 53%; the “% inhibition of "B4-rsCD4" interaction, Conc 1” value turned out to be 64%.

On to CD4 (36-47) [1624a], for which, on "M2-rsCD4" interaction, the “% inhibition of "M2-rsCD4" interaction, Conc 3” value is on record as -141%; the “% inhibition of "M2-rsCD4" interaction, Conc 2” value is -251%; the “% inhibition of "M2-rsCD4" interaction, Conc 1” value is given as -261%. On "B4-rsCD4" interaction, the “% inhibition of "B4-rsCD4" interaction, Conc 3” value is -108%; the “% inhibition of "B4-rsCD4" interaction, Conc 2” value is on record as -207%; the “% inhibition of "B4-rsCD4" interaction, Conc 1” value is -215%.

For the substance CD4 (154-165) [1768a], at "M2-rsCD4" interaction, the “% inhibition of "M2-rsCD4" interaction, Conc 3” value is 19%; the “% inhibition of "M2-rsCD4" interaction, Conc 2” value is 36%; the “% inhibition of "M2-rsCD4" interaction, Conc 1” value is on record as 86%. In addition, on "B4-rsCD4" interaction, the “% inhibition of "B4-rsCD4" interaction, Conc 3” value was determined as 6%; the “% inhibition of "B4-rsCD4" interaction, Conc 2” value is given as 37%; the “% inhibition of "B4-rsCD4" interaction, Conc 1” value amounted to 82%.

Take CD4 (297-351*) [1868a]: at "M2-rsCD4" interaction, the “% inhibition of "M2-rsCD4" interaction, Conc 3” value is given as 17%; the “% inhibition of "M2-rsCD4" interaction, Conc 2” value was found to be 43%; the “% inhibition of "M2-rsCD4" interaction, Conc 1” value is listed as 56%. Further, on "B4-rsCD4" interaction, the “% inhibition of "B4-rsCD4" interaction, Conc 3” value was 19%; the “% inhibition of "B4-rsCD4" interaction, Conc 2” value is 30%; the “% inhibition of "B4-rsCD4" interaction, Conc 1” value is 38%.

In turn, HIV-1 gp120 (ligand) displayed a % of cells stained by gp120-FITC in assay [1] above 90%.

Consider “p1624a (C)CD4(36-47)(C), cyclic (peptide)”, for which the % inhibition of B4-rsCD4 interaction with monoclonal antibody B4 [2] is -108%; with monoclonal antibody B4 [3], -207%; in the assay with monoclonal antibody B4 [4], -215%.

Take p1768a CD4(154-165) (peptide): the results for the % inhibition of B4-rsCD4 interaction in the assay with monoclonal antibody B4 [5], with monoclonal antibody B4 [6] and in the assay with monoclonal antibody B4 [7] were 82%, 37% and 6%, respectively.

Take p1768b HBVTh-GG-CD4(154-165) (peptide): the % inhibition of B4-rsCD4 interaction in the assay with monoclonal antibody B4 [5] amounted to 76%; with monoclonal antibody B4 [6] it was 44%; with monoclonal antibody B4 [7], 11%.

For p1813b HBVTh-GG-CD4(79-88) (peptide), the values for the % inhibition of B4-rsCD4 interaction with monoclonal antibody B4 [5], with monoclonal antibody B4 [6] and with monoclonal antibody B4 [7] were 93%, 69% and 32%, respectively.

As to p1816d CD4(1-20) (peptide), the figures for the % inhibition of B4-rsCD4 interaction with monoclonal antibody B4 [5], with monoclonal antibody B4 [6] and with monoclonal antibody B4 [7] were 64%, 53% and 29%, respectively.

Take p1868a CD4(297-351), cyclic (peptide): the % inhibition of B4-rsCD4 interaction came out at 38% with monoclonal antibody B4 [5], 30% with monoclonal antibody B4 [6] and 19% with monoclonal antibody B4 [7].

Consider “recombinant human monoclonal antibody IgG1 b12”, for which the 50% Inhbt., HIV-1 primary isolate 23135, MT-2 Microplaque Neutralization Assay in [8] was 12.8 µg/mL. The 50% Inhbt., HIV-1 primary isolate BR014, MT-2 Microplaque Neutralization Assay in assay [9] was above 50 µg/mL. For the same substance, in [10], the HIV-1 DH-12 (chimp PBL-grown), PBMC Infection Reduction Assay came to 1.38 logs killed.

Usually IC50 stands for the concentration needed to halve the response being measured. As usually defined, the % Inhibition is the relative decrease from the control value, in per cent. “recombinant soluble CD4 (rsCD4) (receptor)”: the IC50 with monoclonal antibody B4 [11] is 0.047 µg/mL; with monoclonal antibody B4 [15] it was 0.72 µg/mL; with monoclonal antibody B4 [17] it was 1 µg/mL. The % Inhibition with monoclonal antibody B4 [12] was 6.1%; in the assay with monoclonal antibody B4 [14] it was 6.7%; with monoclonal antibody B4 [18] it was 91.9%; with monoclonal antibody B4 [19], -4.7%; with monoclonal antibody B4 [21] it was 91%; in the assay with monoclonal antibody B4 [23] it was 49.9%. The A492 nm came out at 0.637 A492 with monoclonal antibody B4 [12]; 0.633 A492 with monoclonal antibody B4 [14]; 0.055 A492 with monoclonal antibody B4 [18]; 0.711 A492 in the assay with monoclonal antibody B4 [19]; 0.061 A492 with monoclonal antibody B4 [21]; 0.34 A492 with monoclonal antibody B4 [23]. The % Positive cells (biotinylated B4 staining of HPB-ALL) with monoclonal antibody B4 [13], with monoclonal antibody B4 [16], with monoclonal antibody B4 [20], in the assay with monoclonal antibody B4 [22] and with monoclonal antibody B4 [24] was above 95% throughout. Moreover, the staining (biotinylated B4 on HPB-ALL) with monoclonal antibody B4 [13], with monoclonal antibody B4 [16], with monoclonal antibody B4 [20], in the assay with monoclonal antibody B4 [22] and with monoclonal antibody B4 [24] was 3 + throughout.
